The source of these data is publication PMC9482650, “Quantitative fragmentomics allow affinity mapping of interactomes” (Nature Communications, 2022).

The labels stand for the following.
B1: CD226, Q15762 (peptide)
chain: TFSRRPKTRV
B2: FKBP4, Q02790 (peptide)
chain: GSQSQVETEA
B3: CAPN6, Q9Y6Q1 (peptide)
chain: VISSDDLTEL
B4: SIPA1, Q96FS4 (peptide)
chain: QLGSPTADLA
B5: WWTR1, Q9GZV5 (peptide)
chain: NKSEPFLTWL
B6: CRHR1, P34998 (peptide)
chain: FHSIKQSTAV
B7: EXOC4, Q96A65 (peptide)
chain: ATKDKKITTV
B8: GYPC, P04921 (peptide)
chain: GDSSRKEYFI
B9: ZNF599, Q96NL3 (peptide)
chain: THHRKIHTRV
B10: PLCB2, Q00722 (peptide)
chain: AKADAQESRL
B11: MCC, P23508 (peptide)
chain: SRPHTNETSL
B12: CDK18, Q07002 (peptide)
chain: RGKNRRQSIF
B13: HNRNPK, P61978;P61978-2 (peptide)
chain: VKQYADVEGF
B14: CLDN8, P56748 (peptide)
chain: PSVYSRSQYV

The assay concerns the target DLG1_1, Q12959. The experiment in a line: holdup assay. To be noted: plain residues with an end cap or a label only (N-terminal biotin on a linker: ado-ado). Also noted: key: below the threshold = too weak to quantify, mostly under pKd 3.1 to 4.
What is called pKd is the negative decadic logarithm of the Kd, by convention in mol/L. Turning to B1, the pKd entry was “below the threshold”.

In the case of B2, the negative-log Kd (pKd) entry is listed as “below the threshold”.

As to B3, the pKd entry is reported as “below the threshold”.

For the molecule B4, the pKd entry is “below the threshold”.

For the molecule B5, the pKd result was “below the threshold”.

Regarding B6, the pKd was determined as 4.39.

Molecule B7 displayed a pKd of 5.05.

In turn, B8 yielded a pKd of 3.49.

Molecule B9 registered a negative logarithm of the Kd (pKd) of 5.07.

As for B10, the pKd result is “below the threshold”.

For B11, the negative logarithm of the Kd (pKd) is 3.72.

Regarding B12, the pKd entry is on record as “below the threshold”.

As to B13, the negative-log Kd (pKd) result is on record as “below the threshold”.

Consider B14, for which the pKd result is recorded as “below the threshold”.
